From PMC7898697

Biological target: triazole-linked ^triazole42Ub^me-ADPr (5), biotinylated (UniProt P0CG48)
Test: pull-down

## mCherry-DupA-WT (from UniProt Q5ZTK7 1-301) (enzyme)
  fold enrichment against biotinylated wild-type Ub or beads: > 10 fold
